Reference: patent US20070254831A1 (published 2007)
Where two headings read alike, the source gives them in different places. Bridge positions count the residues as written; N and C are the ends. Square brackets hold non-standard residues; d marks the D form. Ends that are not written are not given here. Pen = CC(C)(S)[C@H](N)C(=O)O; NMeA = CN[C@@H](C)C(=O)O

Columns and labels:
[1] = molecular target: T1, soluble human FcRn (human, UniProt P55899 24-297; P61769 21-119, biotinylated (Sulfo-NHS-LC-Biotin) in the ELISA; amine-coupled to CM5 chip in SPR); assay: ELISA, competitor human IgG
T1 construct: also called shFcRn; biotinylated shFcRn
Method: (§1) The wells were coated with 100 μl/well of 1 μg/ml biotinylated-shFcRn in Buffer A. The plate was sealed and incubated at 37° C. for 2 hours. Afterwards, the plate washed with 200 μl/well of Buffer B (Buffer B: 100 mM MES pH 6, 150 mM NaCl, 0.5% BSA IgG-free (Jackson ImmunoResearch, West Grove, Pa.), 0.05% Tween-20). […] To allow for mixing, the plate was rocked for 2 minutes, sealed and incubated at 37° C. for 2 hours. […] The plate was covered, incubated for 30 minutes at room temperature and washed 4 times with 200 μl/well of ice-cold buffer B. SureBlue TMB substrate solution (100 μl/well, KPL, Gaithersburg, Md.) was added and the plate was allowed to incubate at room temperature until color developed, which took 5 to 10 minutes. Once color developed, 100 μl/well of TMB stop solution (KPL, Gaithersburg, Md.) was added and the absorbance was measured at 450 nm. The data was plotted as absorbance vs. peptide concentration to derive the inhibitory concentration 50% (IC₅₀) values.

[2] = molecular target: T1, soluble human FcRn; assay: SPR, pH 6
Method: (§2) The following steps were performed to cross-link soluble human or cynomolgus FcRn to the dextran surface of a CM5 sensor chip (Biacore AB, Uppsala, Sweden) by an amine coupling reaction involving 1-ethyl-(3-dimethylaminopropyl)-carbodiimide hydrochloride (EDC) (Biacore AB, Uppsala, Sweden) and N-hydroxysuccinimide (NHS) (Biacore AB, Uppsala, Sweden) as recommended by Biacore (BIAapplications Handbook, version AB, section 4.2, Biacore AB, Uppsala, Sweden). […] Residual sites on the FcRn flow cell were blocked with 1 M ethanolamine hydrochloride pH 8.5 (Biacore AB, Uppsala, Sweden). A control flow cell was blocked with ethanolamine for reference subtraction. For analysis of the monomeric peptides, FcRn was coated to a final density of 4000-5000 response units (RU). For analysis of the peptide dimers, FcRn was coated to a density of 2000-2500 RU. All SPR measurements were performed using a BIACORE 3000 Instrument (Biacore AB Uppsala, Sweden). For measurements done at either pH 6 or pH 7.4, experiments were performed in 50 mM phosphate, 100 mM sodium chloride, 0.01% surfactant P20 (Biacore AB, Uppsala, Sweden).
(§3) Ten, 2-fold dilutions of the peptide were injected over the FcRn-CM5 chip at a rate of 20 μl/min for 2 min. The peptide was dissociated from the chip for 2.5 minutes with buffer. Any remaining peptide was removed from the chip with a 30 second injection of HBS-P buffer (Biacore AB, Uppsala, Sweden) at a rate of 30 μl/min. Sensorgrams were generated and analyzed using BiaEval software version 3.1 (Biacore AB, Uppsala, Sweden). The equilibrium RU observed for each injection was plotted against concentration. The equilibrium KD values were derived by analysis of the plots using the steady state affinity model included in the BiaEval software.

[3] = molecular target: T1, soluble human FcRn; assay: SPR, pH 6; remark: listed apart in the source
Method: as §2, §3

[4] = molecular target: T1, soluble human FcRn; assay: ELISA, competitor human IgG; remark: listed apart in the source
Method: as §1

[5] = molecular target: T1, soluble human FcRn; assay: SPR, pH 6; remark: listed apart in the source
[6] = molecular target: T1, soluble human FcRn; assay: SPR, pH 6; remark: listed apart in the source
Method: as §2, §3

[7] = molecular target: T1, soluble human FcRn; assay: ELISA, competitor human IgG; remark: listed apart in the source
Method: as §1

[8] = molecular target: T1, soluble human FcRn; assay: SPR, pH 6; remark: listed apart in the source
Method: as §2, §3

[9] = molecular target: T1, soluble human FcRn; assay: ELISA, competitor human IgG; remark: listed apart in the source
Method: as §1

[10] = molecular target: T1, soluble human FcRn; assay: SPR, pH 7.4
Method: as §2, §3

[11] = molecular target: T1, soluble human FcRn; assay: ELISA, competitor human IgG; remark: listed apart in the source
Method: as §1

[12] = molecular target: T1, soluble human FcRn; assay: SPR, pH 6; remark: listed apart in the source
Method: as §2, §3

[13] = molecular target: T1, soluble human FcRn; assay: SPR, pH 6; remark: listed apart in the source
Method: as §2, §3

[14] = molecular target: T1, soluble human FcRn; assay: ELISA, competitor human IgG; remark: listed apart in the source
Method: as §1

T1 sequence (P55899 24-297 limits assumed, chain 1 of 2): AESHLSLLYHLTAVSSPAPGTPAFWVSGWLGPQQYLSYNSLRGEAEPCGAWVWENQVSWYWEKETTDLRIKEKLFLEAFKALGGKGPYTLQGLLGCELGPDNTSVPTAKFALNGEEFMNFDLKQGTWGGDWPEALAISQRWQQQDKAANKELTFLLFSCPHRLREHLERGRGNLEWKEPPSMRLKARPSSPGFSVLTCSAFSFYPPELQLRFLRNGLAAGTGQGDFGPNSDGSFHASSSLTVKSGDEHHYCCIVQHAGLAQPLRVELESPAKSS
T1 sequence (P61769 21-119 limits assumed, chain 2 of 2): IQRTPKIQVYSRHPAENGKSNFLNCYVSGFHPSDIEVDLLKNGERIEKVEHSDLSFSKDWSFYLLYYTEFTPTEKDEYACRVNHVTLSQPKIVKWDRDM

In the case of QRFXTGHFGGLYPXNGP (hC at 4 and 14; disulfide; C-terminal amide) [Peptide No. 28], the IC50 [1] is reported as 20 µM and the Kd [2] is reported as 3.8 µM.

In the case of QRFXTGHFGPLYPXNGP (Pen at 4 and 14; D-Pro at 10; disulfide; C-terminal amide) [Peptide No. 295], the IC50 [1] is reported as 1.6 µM and the Kd [2] is reported as 0.28 µM.

Work on QRFCTGHFGGLFPCNGP-NH2 (disulfide 4-14 (inferred)) [Peptide No. 26] yielded a Kd [3] of 230 µM.

Work on QRFC[NMeA]GHFGGLYPCNGP-NH2 (disulfide 4-14 (inferred)) [Peptide No. 196] yielded an IC50 [4] of 169 µM and a Kd [5] of 18 µM.

In the case of QRACTGHFGGLYPCNGP-NH2 (disulfide 4-14 (inferred)) [SEQ ID NO:26], the Kd [6] is reported as 28 µM and the IC50 [7] is reported as 95 µM.

In the case of QAFCTGHFGGLYPCNGP-NH2 (disulfide 4-14 (inferred)) [SEQ ID NO:25], the Kd [6] is reported as 7.7 µM and the IC50 [7] is reported as 23 µM.

QRFCAGHFGGLYPCNGP-NH2 (disulfide 4-14 (inferred)) [SEQ ID NO:27] was tested, and the Kd [6] was 4.9 µM and the IC50 [7] was 30 µM.

Binder QRFCTGHFGGLYPCAGP-NH2 (disulfide 4-14 (inferred)) [SEQ ID NO:36] has a Kd [6] of 8 µM and an IC50 [7] of 30 µM.

QRFXTGHFGGLYPCNGP (Pen at 4; NMeTyr at 12; disulfide; C-terminal amide) [Peptide No. 114] was tested, and the IC50 [4] was greater than 125 µM and the Kd [5] was 92 µM.

Work on QRF[dC]TGHFGGLYPCNGP-NH2 (disulfide 4-14 (inferred)) [Peptide No. 29] yielded an IC50 [1] greater than 125 µM.

QRFXTGHFGGLXPCNGP (Pen at 4; pentafluoroPhe at 12; disulfide; C-terminal amide) [Peptide No. 65] showed a Kd [3] of 72 µM.

For QRFXTGHFGGLYPCNGP (Pen at 4; Sar at 10; disulfide; C-terminal amide) [Peptide No. 112], the IC50 [4] was 0.9 µM.

Binder QRFXTGHFGGLYPCNGP (Pen at 4; Sar at 6; disulfide; C-terminal amide) [Peptide No. 108] has an IC50 [4] greater than 125 µM.

Work on QRFXTGHFGGLYPCNGP (Pen at 4; NMeLeu at 11; disulfide; C-terminal amide) [Peptide No. 113] yielded an IC50 [4] of 1.6 µM and a Kd [5] of 0.086 µM.

For QRFXTGHFGGLYPXNGP (hC at 4; Pen at 14; disulfide; C-terminal amide) [Peptide No. 70], the Kd [2] was 2.1 µM.

With QRFXTGHFGGLYPXNGP (Pen at 4; hC at 14; disulfide; C-terminal amide) [Peptide No. 69] the IC50 [1] was 2 µM.

B1: Peptide No. 169 (peptide)
peptide: QRFVTGHFG[dP]LYPINGP-NH2
modifications: N-terminus assumed
SMILES: CC[C@H](C)[C@H](NC(=O)[C@@H]1CCCN1C(=O)[C@H](Cc1ccc(O)cc1)NC(=O)[C@H](CC(C)C)NC(=O)[C@H]1CCCN1C(=O)CNC(=O)[C@H](Cc1ccccc1)NC(=O)[C@H](Cc1c[nH]cn1)NC(=O)CNC(=O)[C@@H](NC(=O)[C@@H](NC(=O)[C@H](Cc1ccccc1)NC(=O)[C@H](CCCNC(=N)N)NC(=O)[C@@H](N)CCC(N)=O)C(C)C)[C@@H](C)O)C(=O)N[C@@H](CC(N)=O)C(=O)NCC(=O)N1CCC[C@H]1C(N)=O
Work on B1 yielded a Kd [8] of 15 µM and an IC50 [9] of 72 µM.

QRFXTGHFGPLYPCNGP (Pen at 4; D-Pro at 10; disulfide; C-terminal amide) [Peptide No. 40] showed a Kd [10] of 1.1 µM and an IC50 [11] of 1.4 µM.

For QRFXTGHFGILYPCNGP (Pen at 4; D-Ile at 10; disulfide; C-terminal amide) [Peptide No. 43], the Kd [10] was 41 µM and the IC50 [11] was 18 µM.

For QRFXTGHFDGLYPCNGP (Pen at 4; D-Asp at 9; disulfide; C-terminal amide) [Peptide No. 47], the Kd [10] was 4.9 µM and the Kd [12] was 0.58 µM.

B2: Peptide No. 41 (peptide)
peptide: QRF[Pen]TGHFG[dR]LYPCNGP-NH2
modifications: disulfide 4-14; N-terminus assumed
SMILES: CC(C)C[C@@H]1NC(=O)[C@@H](CCCNC(=N)N)NC(=O)CNC(=O)[C@H](Cc2ccccc2)NC(=O)[C@H](Cc2c[nH]cn2)NC(=O)CNC(=O)[C@H]([C@@H](C)O)NC(=O)[C@@H](NC(=O)[C@H](Cc2ccccc2)NC(=O)[C@H](CCCNC(=N)N)NC(=O)[C@@H](N)CCC(N)=O)C(C)(C)SSC[C@@H](C(=O)N[C@@H](CC(N)=O)C(=O)NCC(=O)N2CCC[C@H]2C(N)=O)NC(=O)[C@@H]2CCCN2C(=O)[C@H](Cc2ccc(O)cc2)NC1=O
In the case of B2, the Kd [10] is reported as 8.8 µM, the Kd [12] is reported as 0.83 µM and the IC50 [11] is reported as 8.1 µM.

In the case of QRFXTGHFGFLYPCNGP (Pen at 4; D-Phe at 10; disulfide; C-terminal amide) [Peptide No. 44], the Kd [10] is reported as 100 µM and the Kd [12] is reported as 1.7 µM.

With QRFXTGHFGHLYPCNGP (Pen at 4; D-His at 10; disulfide; C-terminal amide) [Peptide No. 42] the Kd [10] was 20 µM and the Kd [12] was 2 µM.

QRFXTGHFGGLYPXNGP (Pen at 4 and 14; disulfide; C-terminal amide) [Peptide No. 34] was tested, and the IC50 [1] was 2 µM and the Kd [2] was 0.37 µM.

For QRFSTGHFGGLYPSNGP-NH2 [Peptide No. 71], the Kd [8] was 230 µM and the IC50 [9] was greater than 125 µM.

For QRFCTGHFGGLYPXNGP (hC (L-homocysteine) at 14; disulfide; C-terminal amide) [Peptide No. 27], the IC50 [1] was 21 µM and the Kd [2] was 3.9 µM.

Binder QRFXTGHFGXLYPCNGP (Pen at 4; Aib (aminoisobutyric acid) at 10; disulfide; C-terminal amide) [Peptide No. 46] has a Kd [10] of 5.3 µM, a Kd [12] of 0.48 µM and an IC50 [11] of 2.4 µM.

Binder RFXTGHFGGLYPC (Pen at 3; Sar at 9; NMeLeu at 10; disulfide; C-terminal amide) [Peptide No. 235] has a Kd [13] of 0.031 µM and a Kd [5] of 0.031 µM.

In the case of RFXTGHFSGLYPC (Pen at 3; D-Ser at 8; Sar at 9; NMeLeu at 10; disulfide; C-terminal amide) [Peptide No. 241], the IC50 [14] is reported as 23 µM and the Kd [13] is reported as 1.1 µM.

Binder RFXTGHFTGLYPC (Pen at 3; D-Thr at 8; Sar at 9; NMeLeu at 10; disulfide; C-terminal amide) [Peptide No. 240] has an IC50 [14] of 71 µM and a Kd [13] of 4.8 µM.

RFXTGHFLGLYPC (Pen at 3; D-Leu at 8; Sar at 9; NMeLeu at 10; disulfide; C-terminal amide) [Peptide No. 219] gave an IC50 [14] of 4 µM and a Kd [13] of 0.47 µM.

Binder RFXTGHFNGLYPC (Pen at 3; D-Asn at 8; Sar at 9; NMeLeu at 10; disulfide; C-terminal amide) [Peptide No. 243] has an IC50 [14] of 29 µM and a Kd [13] of 2.1 µM.

RFXTGHFEGLYPC (Pen at 3; D-Glu at 8; Sar at 9; NMeLeu at 10; disulfide; C-terminal amide) [Peptide No. 244] showed an IC50 [14] of 6.4 µM and a Kd [13] of 0.58 µM.

RFXTGHFVGLYPC (Pen at 3; D-Val at 8; Sar at 9; NMeLeu at 10; disulfide; C-terminal amide) [Peptide No. 218] showed an IC50 [14] greater than 50 µM.

In the case of RFXTGHFFGLYPC (Pen at 3; D-Phe at 8; Sar at 9; NMeLeu at 10; disulfide; C-terminal amide) [Peptide No. 217], the Kd [13] is reported as 1.4 µM.

Work on QRFXTGHFGGLXPCNGP (Pen at 4; 2-nitro-Tyr at 12; disulfide; C-terminal amide) [Peptide No. 87] yielded a Kd [3] of 290 µM.

QRFXTGHFGGLXPCNGP (Pen at 4; 4-nitro-Phe at 12; disulfide; C-terminal amide) [Peptide No. 68] was tested, and the Kd [3] was 180 µM.
